Source: patent US20140086935A1 (Bayer, published 2014)
Substitutions are numbered along the chain they refer to. Read-outs that look alike come from different tables or passages of the source. Values belong to the binder of their own block, whether it stands above or below them.

Key:
rat TIMP-1 [1] = target: T1, rat TIMP-1 (rat, UniProt P30120 24-217); assay: SPR (BIAcore), rat TIMP-1 on chip (500 RU), IgG1, bivalent fit (avidity)
Experimental: (§1) For affinity determination, monomeric fractions of affinity and SEC purified Fab fragments or purified IgG1 molecules were used. All experiments were conducted in HBS buffer at a flow rate of 20 μl/min at 25° C. on a BIAcore™ instrument. Antigens in 100 mM sodium acetate pH 5.0 were coupled to a CM 5 sensor chip using standard EDC-NHS coupling chemistry. […] All sensograms were fitted globally using BIA evaluation software. For monovalent Fab fragments a monovalent fit (Langmuir binding) and for IgGs a bivalent fit was applied.
Anti-rat TIMP-1 clone MS-BW-14 was chosen for the first in vivo study, and IgG₁ protein was produced by transient expression. Anti-human TIMP-1 clone MS-BW-3 was selected as a negative control IgG₁ and was also produced by transient expression. Purified IgG₁ proteins MS-BW-14 and MS-BW-3 were subjected to quality control in BIAcore™ and rat TIMP-1/rat MMP-13 assays. […] This increase in affinity for the IgG₁ is due to the avidity effects caused by binding of bivalent IgG₁ to immobilized rat TIMP-1 protein on the BIAcore™ chip.

rat TIMP-1 [2] = target: T1, rat TIMP-1; assay: cell-based or functional assay
human TIMP-1 [3] = target: T2, human TIMP-1 (human, UniProt P01033 24-207); assay: cell-based or functional assay
human TIMP-1 [4] = target: T2, human TIMP-1; assay: SPR (BIAcore); against the parental Fab (MS-BW-3, 13 nM; not given)
Experimental: as §1

human TIMP-1 [5] = target: T2, human TIMP-1; assay: SPR (BIAcore), TIMP-1 coupled to chip, monovalent Fab
Experimental: as §1

human TIMP-1 [6] = target: T2, human TIMP-1; assay: cell-based or functional assay; remark: listed apart in the source
human TIMP-1 [7] = target: T2, human TIMP-1; assay: SPR (BIAcore), TIMP-1 coupled to chip, monovalent Fab; remark: listed apart in the source
Experimental: as §1

human TIMP-1 [8] = target: T2, human TIMP-1; assay: as above; remark: listed apart in the source
Experimental: as §1

human TIMP-1 [9] = target: T2, human TIMP-1; assay: cell-based or functional assay; remark: listed apart in the source
human TIMP-1 [10] = target: T2, human TIMP-1; assay: cell-based or functional assay; remark: listed apart in the source
human TIMP-1 [11] = target: T2, human TIMP-1; assay: SPR (BIAcore); against the parental Fab (MS-BW-44-2, 0.5 nM; implied)
Experimental: as §1

human TIMP-1 [12] = target: T2, human TIMP-1; assay: SPR (BIAcore), monovalent Fab; against parental clone MS-BW-3 (best Fab and parent named in paragraph 170)
human TIMP-1 [13] = target: T2, human TIMP-1; assay: SPR (BIAcore), monovalent Fab
Experimental: as §1

human TIMP-1 [14] = target: T2, human TIMP-1; assay: SPR (BIAcore); against the parental Fab (MS-BW-44-6, 0.6 nM; implied)
Experimental: as §1

rat TIMP-1 [15] = target: T1, rat TIMP-1; assay: SPR (BIAcore), rat TIMP-1 on chip, IgG1, bivalent (avidity)
Experimental: as §1
Affinity matured clone MS-BW-17-1 was then converted from a monovalent Fab fragment to a bivalent IgG₁. Protein was produced by stable transfection. Purified protein was subjected to quality control in BIAcore™ and rat TIMP-1/rat MMP-13 assays (FIG. 13).

rat TIMP-1 [16] = target: T1, rat TIMP-1; assay: cell-based or functional assay; remark: listed apart in the source

T1 sequence (P30120 24-217 limits assumed): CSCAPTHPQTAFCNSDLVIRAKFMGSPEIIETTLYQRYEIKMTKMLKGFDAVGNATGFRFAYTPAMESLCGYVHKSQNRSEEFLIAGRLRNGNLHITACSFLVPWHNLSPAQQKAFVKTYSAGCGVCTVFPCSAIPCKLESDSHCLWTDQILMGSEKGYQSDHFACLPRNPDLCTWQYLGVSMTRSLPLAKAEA

improvement factor with respect to the IC50 in human TIMP-1/MMP-1 assay (against the Fab of the previous maturation cycle, MS-BW-44-2) (human TIMP-1 [10]): 2 fold
IC50 in human protease assay (modified, decreased TIMP-1 and MMP-1) (human TIMP-1 [6]): 0.2 nM
improvement factor (affinity) (human TIMP-1 [11]): 2.5 fold
Kd (human TIMP-1 [8]): 0.2 nM
B3: MS-BW-44-2-4 (Fab, V domains shown)
VH: QVQLVESGGGLVQPGGSLRLSCAASGFTFSSYAMSWVRQAPGKGLEWVSGISGNGVLIFYADSVKGRFTISRDNSKNTLYLQMNSLRAEDTAVYYCARGLMDYWGQGTLVTVSS
VL: DIALTQPASVSGSPGQSITISCTGTSSDVGGYNYVSWYQQHPGKAPKLMIYDVSNRPSGVSNRFSGSKSGNTASLTISGLQAEDEADYYCQSYDFVRFMVFGGGTKLTVLG
notes: Fab from HCDR3 optimization of MS-BW-44-2

improvement factor of monovalent affinity (human TIMP-1 [12]): 87 fold
improvement factor of activity in human TIMP-1/MMP-1 assay (against parental clone MS-BW-3) (human TIMP-1 [10]): 55 fold
IC50 in human protease assay (modified, decreased TIMP-1 and MMP-1) (human TIMP-1 [6]): 0.2 nM
Kd (human TIMP-1 [8]): 0.2 nM
Kd (human TIMP-1 [13]): 0.15 nM
improvement factor (affinity) (human TIMP-1 [14]): 4 fold
B4: MS-BW-44-6-1 (Fab, V domains shown)
VH: QVQLVESGGGLVQPGGSLRLSCAASGFTFNSYAMSWVRQAPGKGLEWVSVISGNGSNTYYADSVKGRFTISRDNSKNTLYLQMNSLRAEDTAVYYCARFLDIWGQGTLVTVSS
VL: B3 VL with V96I
notes: Fab from LCDR3 optimization of MS-BW-44-6

The remaining lines, values behind:

B1: MS-BW-14 IgG1 (antibody, V domains shown)
VH: QVQLVQSGAEVKKPGSSVKVSCKASGGTFSSYAISWVRQAPGQGLEWMGGIIPIFGTANYAQKFQGRVTITADESTSTAYMELSSLRSEDTAVYYCARWSDQSYHYYWHPYFDVWGQGTLVTVSS
VL: DIVLTQPPSVSGAPGQRVTISCSGSSSNIGSNYVSWYQQLPGTAPKLLIYDNNQRPSGVPDRFSGSKSGTSASLAITGLQSEDEADYYCQSWDLEPYVFGGGTKLTVL
notes: Variable regions of Fab MS-BW-14 cloned into human IgG1 vectors; also called IgG1 protein MS-BW-14; copies: 2 + 2
Kd (rat TIMP-1 [1]): 0.2 nM
IC50 (50 % reversal of the inhibition of rat MMP-13 by rat TIMP-1, fluorogenic peptide substrate assay) (rat TIMP-1 [2]): ~7 nM

B2: MS-BW-44 (Fab, V domains shown)
VH: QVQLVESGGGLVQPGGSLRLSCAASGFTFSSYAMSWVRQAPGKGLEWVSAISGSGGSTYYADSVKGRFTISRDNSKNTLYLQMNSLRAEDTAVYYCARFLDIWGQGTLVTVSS
VL: B3 VL
notes: Fab: heavy chain of MS-BW-3 with light chain of MS-BW-26; not tied by name
IC50 in human protease assay (human TIMP-1 [3]): 4 nM
improvement factor (Kd) (human TIMP-1 [4]): 6.5 fold
Kd (human TIMP-1 [5]): 2 nM
IC50 in human protease assay (human TIMP-1 [6]): 4 nM
IC50 in human protease assay (modified, decreased amounts of TIMP-1 and MMP-1) (human TIMP-1 [6]): 2 nM
Kd (human TIMP-1 [7]): 2 nM
Kd (human TIMP-1 [8]): 2 nM
IC50 in human protease assay (modified, 0.4 nM TIMP-1 and MMP-1) (human TIMP-1 [9]): 2 nM

B5: MS-BW-17-1 IgG1 (antibody, V domains shown)
VH: QVQLVQSGAEVKKPGESLKISCKGSGYSFTSYWIGWVRQMPGKGLEWMGIIYPGDSDTRYSPSFQGQVTISADKSISTAYLQWSSLKASDTAMYYCARLTNYFDSIYYDHWGQGTLVTVSS
VL: DIALTQPASVSGSPGQSITISCTGTSSDVGGYNYVSWYQQHPGKAPKLMIYDVSNRPSGVSNRFSGSKSGNTASLTISGLQAEDEADYYCQAFDVAPNGKVFGGGTKLTVL
notes: Fab MS-BW-17-1 converted to bivalent human IgG1
Kd (rat TIMP-1 [15]): 0.04 nM
IC50 (50 % reversal of the inhibition of rat MMP-13 by rat TIMP-1, fluorogenic peptide substrate assay) (rat TIMP-1 [16]): ~0.9 nM
